In the supplement of paper PMC12855868:

B1: library; numbered along this chain (parent)
chain: MAAAGGARLLRAASAVLGGPAGRWLHHAGSRAGSSGLLRNRGPGGSAEASRSLSVSARARSSSEDKITVHFINRDGETLTTKGKVGDSLLDVVVENNLDIDGFGACEGTLACSTCHLIFEDHIYEKLDAITDEENDMLDLAYGLTDRSRLGCQICLTKSMDNMTVRVPETVADARQSIDVGKTS

Variants of: B1
Experiment: scaled log2 fold change in cell abundance, elesclomol vs control (0 = silent mean, 1 = nonsense mean) (scaled log2 ratio); higher = higher viability under elesclomol (loss of FDX1 cuproptosis function)
Details: glucose 10 mM
[1] = with ABC1 FDX1 KO, elesclomol 5 nM, 14 days
[2] = with HEK293T FDX1 KO, elesclomol 40 nM, 11 days
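Note: variant abundance is its share of total variant reads in each endpoint sample, from next-generation sequencing of the integrated ORF PCR-amplified out of genomic DNA.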

Variant	scaled log2 fold change [1]	scaled log2 fold change [2]
E107L	-0.267	-0.452
E107W	0.121	-0.686
E107A	0.00703	-0.202
E107Q	-0.324	-0.527
G108F	1.12	0.938
G108R	0.794	-0.104
G108S	0.376	0.952
G108N	0.805	0.721
G108L	1.02	1.11
G108T	1.01	0.358
G108E	1.01	0.92
G108I	1.05	1.37
G108A	0.21	1.08
G108P	1.09	1.24
G108H	0.742	0.224
G108M	0.834	0.77
G108D	0.898	0.446
G108Q	0.767	0.807
G108C	1.05	0.472
G108Y	1	1.1
G108K	0.467	0.101
G108V	1.07	1.34
G108W	0.949	0.989
T109Y	-0.087	–

Variant	scaled log2 fold change [1]	scaled log2 fold change [2]
T109E	-0.14	–
T109P	0.947	0.81
T109N	-0.076	0.456
T109D	-0.669	0.407
T109C	-0.244	-0.121
T109S	-1.08	-0.288
T109G	0.318	0.43
T109R	-0.153	1.07
T109L	-0.315	0.377
T109M	-0.267	1.01
T109W	-0.657	0.253
T109Q	-0.041	–
T109V	-0.651	–
T109K	-0.296	-0.481
T109I	-0.689	-0.157
T109A	-0.1	0.103
T109F	-0.985	-0.223
T109H	-0.34	-0.84
G104Q	1.05	0.891
G104A	0.243	-1.55
G104D	1.12	0.43
G104H	0.989	0.725
G104P	1.02	0.598
G104R	0.848	0.682

Variant	scaled log2 fold change [1]	scaled log2 fold change [2]
G104E	1.19	0.941
G104K	0.879	0.468
G104F	0.647	0.268
G104S	0.931	0.363
G104T	0.997	1.59
G104W	0.96	0.69
G104L	1.03	0.779
G104C	0.959	1.19
G104V	0.949	1.02
G104Y	0.933	1.09
G104I	0.933	1.53
G104M	0.794	0.449
G104N	0.899	1.47
C112M	1.09	1.24
C112Q	1.01	1.1
C112T	1.16	0.679
C112S	0.988	0.991
C112V	1.21	1.04
C112P	1.17	0.87
C112F	1.02	1.25
C112G	1.15	1.18
C112L	0.979	1.26
C112H	0.978	1.42
C112W	1.17	0.573

Variant	scaled log2 fold change [1]	scaled log2 fold change [2]
C112D	0.906	2.02
C112A	1.16	1.03
C112N	0.953	1.22
C112R	1.08	1.29
C112E	1.07	0.951
C112K	1.12	1.35
C112I	0.989	1.33
C112Y	1.09	1.3
A111L	0.263	0.862
A111G	-0.0345	0.231
A111T	0.105	-0.0821
A111C	-0.264	2.92
A111E	-0.193	1.05
A111Q	-0.0306	-0.173
A111W	0.0852	0.773
A111K	-0.155	0.541
A111H	-0.198	–
A111D	-0.231	0.497
A111I	-0.421	-0.0909
A111S	0.397	-0.445
A111F	-1.42	0.414
A111M	-0.315	1.22
A111Y	-1.01	0.214
A111V	-0.00247	-0.469

Variant	scaled log2 fold change [1]	scaled log2 fold change [2]
A111R	-0.24	–
A111P	1.2	1.01
A111N	-0.0992	0.0245
T114R	0.517	0.411
T114V	0.906	0.208
T114S	-0.416	0.997
T114K	0.766	0.199
T114H	-0.00732	0.334
T114L	0.463	0.0445
T114I	1.02	1.01
T114E	0.811	1.09
T114A	-0.0113	0.0983
T114F	0.685	0.235
T114N	0.0748	1.03
T114M	0.114	0.455
T114W	1.03	0.814
T114G	-1.41	-0.22
T114Q	-0.112	0.0599
T114Y	0.838	0.412
T114P	1.01	0.956
T114C	0.158	0.117
T114D	0.795	0.798
